{
  "source": "paper PMC7948501",
  "about": "“Structure of transmembrane prolyl 4-hydroxylase reveals unique organization of EF and dioxygenase domains” (The Journal of Biological Chemistry, 2020)",
  "proteins": {"B1": {"name": "soluble human transmembrane prolyl 4-hydroxylase (P4H-TM), residues 88 to 502 with an N-terminal His-tag (enzyme, UniProt Q9NXG6-1 88-502, looked up)", "chain": "DESSDPGPQHRAQGPGPEPTLGPLTRLEGIKVGHERKVQLVTDRDHFIRTLSLKPLLFEIPGFLTDEECRLIIHLAQMKGLQRSQILPTEEYEEAMSTMQVSQLDLFRLLDQNRDGHLQLREVLAQTRLGNGWWMTPESIQEMYAAIKADPDGDGVLSLQEFSNMDLRDFHKYMRSHKAESSELVRNSHHTWLYQGEGAHHIMRAIRQRVLRLTRLSPEIVELSEPLQVVRYGEGGHYHAHVDSGPVYPETICSHTKLVANESVPFETSCRYMTVLFYLNNVTGGGETVFPVADNRTYDEMSLIQDDVDLRDTRRHCDKGNLRVKPQQGTAVFWYNYLPDGQGWVGDVDDYSLHGGCLVTRGTKWIANNWINVDPSRARQALFQQEMARLAREGGTDSQPEWALDRAYRDARVEL", "modifications": "N-linked glycans at Asn368 and Asn382", "notes": "human transmembrane prolyl 4-hydroxylase (P4H-TM), isoform 1 (502 residues), residues 88-502; lacks the short cytoplasmic region and the transmembrane helix; then six histidines and residues 88-502; Calculated mass 48.3 kDa; also called soluble part of human P4H-TM; isoform 1; not shown: His6, N-terminal, kept"}},
  "biological_target": "the molecule itself",
  "assay": "SEC-SAXS; 7.4 mg/ml on Superdex 200 Increase 5/150, RT; 10 mM Tris HCl pH 7.8, 0.1 M NaCl, 0.1 M glycine, 1% glycerol, with and without 2 mM CaCl2; Bayesian molecular weight estimate",
  "data": [
    {"protein": "B1", "values": [
      {"measurement": "stoichiometry N", "value": 2}
    ]}
  ]
}
